Reference: patent US20240290419A1 (KATHOLIEKE UNIVERSITEIT LEUVEN, published 2024)

Legend:
[1] = target: the molecule itself; assay: SDS PAGE, SEC, XRD; self-association
[2] = target: the molecule itself; assay: size exclusion chromatography, after EDTA
From the text: (§1) FIG. 29: Size Exclusion Chromatograms for various SAKe mutants. A: S6BE-3 HR on a HiLoad Superdex 75 pg 16/600 column. B: S6BE-3CHR on a HiLoad Superdex 200 pg 16/600 column. C: S2BE-3 HR on a HiLoad Superdex 75 pg 16/600 column. D: S6BE-3 HR-L3 on a HiLoad Superdex 200 pg 16/600 column. E: mEm-v22S6BE-3 HR on a HiLoad Superdex 200 pg 16/600 column. F: dS6AC on a HiLoad Superdex 200 pg 16/600 column.
(§2) Concentrated protein samples were loaded on HiLoad Superdex 75 pg 16/600 or HiLoad Superdex 200 pg 16/600 SEC columns (Cytiva). SEC can also be used to assess biological size. All samples were run with a HEPES buffer (20 mM HEPES, pH 8.0, 200 mM NaCl). Proteins expected to interact with metals were incubated with at least 5 mM EDTA prior to SEC injection.

[3] = target: the molecule itself; assay: dialysis to pH 4.0 and X-ray diffraction; self-assembly into crystals
From the text: SAKe's symmetry and modifiable interfaces make it an ideal building block for construction of macromolecular assemblies. […] To understand this reversible self-assembly mechanism, the crystals formed at different pH were investigated with XRD. […] At pH 8.0, His (pKa3 6.08-6.90) and Glu (pKa 4.3-4.4) are deprotonated and the net […] charge of S6BE likely causes mutual repulsion. However, at pH 4 these residues are protonated. Due to its symmetry and dipole-like character, S6BE shape and charge complementarity is then expected to allow for self-assembly into a tight hexagonal packing (FIGS. 2 and 11). A series of hydrogen bonds and hydrophobic interactions can then further stabilize the assembly. Similar mechanisms have been reported for the capsid proteins of cowpea chlorotic mosaic virus (CCMV) [Speir et al. Structure 1995, 3, 63-78; Lavelle et al. J. Phys. Chem. B 2009, 113, 3813-3819; Van Eldijk et al. J. Am. Chem. Soc. 2012, 134, 18506-18509].

[4] = target: the molecule itself; assay: size exclusion chromatography
From the text: as §1, §2

B1: S2BE-3HR (other)
chain: NGLIYAVGGYDGNTHLNSVEAYDPERNEWSLVAPLSTRRSGVGVAVLNGLIYAVGGYDGNTHLNSVEAYDPHRNEWSLVAPLSTRRSGVGVAVL
notes: Designed two-blade truncation of S6BE-3HR; Expressed from pET-28a with an N-terminal hexahistidine tag that was removed with thrombin
- binding result [1]: binds

B2: S6BE-3HR-L3 (other)
chain: NGLIYAVGGYDGSPDGSTHLNSVEAYDPERNEWSLVAPLSTRRSGVGVAVLNGLIYAVGGFATLETESGELVPTELNSVEAYDPHRNEWSLVAPLSTRRSGVGVAVLNGLIYAVGGYDGSPDGSTHLNSVEAYDPERNEWSLVAPLSTRRSGVGVAVLNGLIYAVGGFATLETESGELVPTELNSVEAYDPHRNEWSLVAPLSTRRSGVGVAVLNGLIYAVGGYDGSPDGSTHLNSVEAYDPERNEWSLVAPLSTRRSGVGVAVLNGLIYAVGGFATLETESGELVPTELNSVEAYDPHRNEWSLVAPLSTRRSGVGVAVL
notes: L3 loop graft on the S6BE-3HR scaffold
- binding result [2]: no binding

B3: S6BE (other)
chain: MNGLIYAVGGYDGNTHLNSVEAYDPERNEWSLVAPLSTRRSGVGVAVLNGLIYAVGGYDGNTHLNSVEAYDPERNEWSLVAPLSTRRSGVGVAVLNGLIYAVGGYDGNTHLNSVEAYDPERNEWSLVAPLSTRRSGVGVAVLNGLIYAVGGYDGNTHLNSVEAYDPERNEWSLVAPLSTRRSGVGVAVLNGLIYAVGGYDGNTHLNSVEAYDPERNEWSLVAPLSTRRSGVGVAVLNGLIYAVGGYDGNTHLNSVEAYDPERNEWSLVAPLSTRRSGVGVAVL
notes: Designed six-blade B-type SAKe propeller; Expressed with an N-terminal His tag that was removed with thrombin; also called SAKe6BE; S6_6E
- binding result [3]: binds

B4: dS6AC (other)
chain: NGRIYAVGGYDGSPDGHTHLNSVEAYDPETDEWSFVAPMTTPRSGVGVAVLNGRIYAVGGYDGSPDGHTHLNSVEAYDPETDEWSFVAPMTTPRSGVGVAVLNGRIYAVGGYDGSPDGHTHLNSVEAYDPETDEWSFVAPMTTPRSGVGVAVLNGRIYAVGGYDGSPDGHTHLNSVEAYDPETDEWSFVAPMTTPRSGVGVAVLNGRIYAVGGYDGSPDGHTHLNSVEAYDPETDEWSFVAPMTTPRSGVGVAVLNGRIYAVGGYDGSPDGHTHLNSVEAYDPETDEWSFVAPMTTPRSGVGVAVLSGGRIYAVGGYDGSPDGHTHLNSVEAYDPETDEWSFVAPMTTPRSGVGVAVLNGRIYAVGGYDGSPDGHTHLNSVEAYDPETDEWSFVAPMTTPRSGVGVAVLNGRIYAVGGYDGSPDGHTHLNSVEAYDPETDEWSFVAPMTTPRSGVGVAVLNGRIYAVGGYDGSPDGHTHLNSVEAYDPETDEWSFVAPMTTPRSGVGVAVLNGRIYAVGGYDGSPDGHTHLNSVEAYDPETDEWSFVAPMTTPRSGVGVAVLNGRIYAVGGYDGSPDGHTHLNSVEAYDPETDEWSFVAPMTTPRSGVGVAVL
notes: Genetic fusion of two S6AC units via a Ser linker
- binding result [4]: no binding
